Measured values: US20210139579A1 (published 2021)
Positions count from the first letter of the chain named.

B1: XBR1-402 chimeric rabbit/human Fab (Fab, V domains shown)
VH: QEQQKESGGGLFKPTDTLTLTCTASGFDISSYYMSWVRQAPGNGLEWIGAIGISGNAYYASWAKSRSTITRNTNLNTVTLKMTSLTAADTATYFCARDHPTYGMDLWGPGTLVTVSS
VL: SYELTQLPSVSVSLGQTARITCEGNNIGSKAVHWYQQKPGLAPGLLIYDDDERPSGVPDRFSGSNSGDTATLTISGAQAGDEADYYCQVWDSSAYVFGGGTQLTVTG
B2: ERR1-403 chimeric rabbit/human Fab (Fab, V domains shown)
VH: QEQLKESGRGLVQPGGSLKLSCKASGFDFSGWYMTWVRQAPGKGLEWIGTIGTTKGRTYYASWVNGRFTISSDNAQNTVDLQMNSLTAADRATYFCVRGSDYFDLWGPGTLVTISS
VL: SYELTQLPSVSVSLGQTARITCGGNSIGSKAVNWYQQKPGLAPGLLIYDDDERPSGVPARFSGSNSGDTATLTISGAQAGDEADYYCQLWDSSAGAYVFGGGTQLTVTG
B3: ERR1-TOP43 chimeric rabbit/human Fab (Fab, V domains shown)
VH: QSLEESGGRLVTPGTPLTLTCTVSGFSLSSYWMSWVRQAPGKGLEWIGAIYGSGNTYYASWAKGRFTISKTSTTVDLKITSPTTEDTATYFCARDVHSTATDLWGPGTLVTISS
VL: B2 VL with S26N, D49N, A59D
B4: ERR1-301 chimeric rabbit/human Fab (Fab, V domains shown)
VH: QEQLEESGGGLVTPGGSLTLTCTASGFTISTYHMSWVRQAPGKGLEWIGSIYAGSGSTYYASWVNGRFTISSNTTQNTVSLQMNSLTVADTATYFCARDHPSYGMDLWGPGTLVTVSS
VL: B2 VL with A59D, G63A, G80E, G95V

Biological target: hFc-hROR1 (fusion protein of the extracellular domain of human ROR1 and the Fc domain of human IgG1) (human, UniProt P01857 99-330 = IgG part)
Assay: SPR

Chain of hFc-hROR1 (fusion protein of the extracellular domain of human ROR1 and the Fc domain of human IgG1) (P01857 other isoform, or with tags, fused parts or gaps): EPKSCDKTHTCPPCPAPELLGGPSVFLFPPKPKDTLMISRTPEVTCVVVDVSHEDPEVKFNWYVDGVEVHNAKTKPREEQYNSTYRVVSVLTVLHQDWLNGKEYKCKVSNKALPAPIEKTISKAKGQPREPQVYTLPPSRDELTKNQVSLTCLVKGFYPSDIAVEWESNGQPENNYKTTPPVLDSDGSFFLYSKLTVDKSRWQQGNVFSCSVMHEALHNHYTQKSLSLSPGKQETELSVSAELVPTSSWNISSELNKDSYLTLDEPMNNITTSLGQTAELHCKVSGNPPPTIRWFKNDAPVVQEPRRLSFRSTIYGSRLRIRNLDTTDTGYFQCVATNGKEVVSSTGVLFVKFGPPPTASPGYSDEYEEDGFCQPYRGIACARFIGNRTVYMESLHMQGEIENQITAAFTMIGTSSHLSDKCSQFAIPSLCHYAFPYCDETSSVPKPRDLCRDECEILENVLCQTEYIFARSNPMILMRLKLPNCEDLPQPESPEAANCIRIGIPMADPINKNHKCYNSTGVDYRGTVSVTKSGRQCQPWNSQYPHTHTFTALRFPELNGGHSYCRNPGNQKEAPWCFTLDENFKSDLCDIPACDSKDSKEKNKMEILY

| Kd [nM] | Binder |
| --- | --- |
| 5.81 | B1 |
| 41.6 | B2 |
| 1.11 | B3 |
| 118 | B4 |
